According to paper doi:10.1101/2021.08.20.457142:

B1: MKK7 D-site peptide (second D-site) / JNK1 alpha1 (MAPK8 isoform 1) L198A, full length (parent complex)
chain 1: SQPQRPRPTLQLPLANEAFEQP
chain 2: MSRSKRDNNFYSVEIGDSTFTVLKRYQNLKPIGSGAQGIVCAAYDAILERNVAIKKLSRPFQNQTHAKRAYRELVLMKCVNHKNIIGLLNVFTPQKSLEEFQDVYIVMELMDANLCQVIQMELDHERMSYLLYQMLCGIKHLHSAGIIHRDLKPSNIVVKSDCTLKILDFGLARTAGTSFMMTPYVVTRYYRAPEVIAGMGYKENVDLWSVGCIMGEMVCHKILFPGRDYIDQWNKVIEQLGTPCPEFMKKLQPTVRTYVENRPKYAGYSFEKLFPDVLFPADSEHNKLKASQARDLLSKMLVIDASKRISVDEALQHPYINVWYDPSEAEAPPPKIPDKQLDEREHTIEEWKELIYKEVMDLEERTKNGVIRGQPSPLAQVQQ

Variants of: B1

Row | Variant | screen value
1 | chain 1 P13R | 1.24 Z-score of the enrichment rate within one screen of 711 sequences
2 | chain 1 P13F | 1.62 Z-score of the enrichment rate within one screen of 711 sequences
3 | chain 1 P13T | 1.03 Z-score of the enrichment rate within one screen of 711 sequences
4 | chain 1 P13A, chain 1 L14A | 0.556 Z-score of the enrichment rate within one screen of 711 sequences
5 | chain 1 P6A, chain 1 P8A | 0.889 Z-score of the enrichment rate within one screen of 711 sequences
6 | chain 1 P3A, chain 1 R7A | 0.212 Z-score of the enrichment rate within one screen of 711 sequences
7 | chain 1 L14Q | 0.637 Z-score of the enrichment rate within one screen of 711 sequences
8 | chain 1 L14M | 0.805 Z-score of the enrichment rate within one screen of 711 sequences
9 | chain 1 L14G | 0.653 Z-score of the enrichment rate within one screen of 711 sequences
10 | chain 1 L14S | 0.942 Z-score of the enrichment rate within one screen of 711 sequences
11 | chain 1 L14C | 1.27 Z-score of the enrichment rate within one screen of 711 sequences
12 | chain 1 L14N | 0.512 Z-score of the enrichment rate within one screen of 711 sequences
13 | chain 1 L14V | 0.826 Z-score of the enrichment rate within one screen of 711 sequences
14 | chain 1 L10A, chain 1 N16A | -0.696 Z-score of the enrichment rate within one screen of 711 sequences
15 | chain 1 Q4A, chain 1 T9A | 1.32 Z-score of the enrichment rate within one screen of 711 sequences
16 | chain 1 R7A, chain 1 P13A | 0.166 Z-score of the enrichment rate within one screen of 711 sequences
17 | chain 1 Q4A, chain 1 L14A | 0.562 Z-score of the enrichment rate within one screen of 711 sequences
18 | chain 1 Q4A, chain 1 P6A | 1.09 Z-score of the enrichment rate within one screen of 711 sequences
19 | chain 1 Q11D | 1.71 Z-score of the enrichment rate within one screen of 711 sequences
20 | chain 1 Q11L | 1.67 Z-score of the enrichment rate within one screen of 711 sequences
21 | chain 1 Q11M | 1.43 Z-score of the enrichment rate within one screen of 711 sequences
22 | chain 1 R7A, chain 1 Q11A | 0.044 Z-score of the enrichment rate within one screen of 711 sequences
23 | chain 1 R5A, chain 1 N16A | 0.479 Z-score of the enrichment rate within one screen of 711 sequences
24 | chain 1 Q11A, chain 1 L12A | -0.605 Z-score of the enrichment rate within one screen of 711 sequences
25 | chain 1 L12A, chain 1 N16A | -0.599 Z-score of the enrichment rate within one screen of 711 sequences
26 | chain 1 Q4A, chain 1 L12A | -0.309 Z-score of the enrichment rate within one screen of 711 sequences

Row | Variant | screen value
27 | chain 1 P3S, chain 1 Q4K | 1.43 Z-score of the enrichment rate within one screen of 711 sequences
28 | chain 1 P6A, chain 1 T9A | 1.16 Z-score of the enrichment rate within one screen of 711 sequences
29 | chain 1 L12R | -0.521 Z-score of the enrichment rate within one screen of 711 sequences
30 | chain 1 L12D | -0.686 Z-score of the enrichment rate within one screen of 711 sequences
31 | chain 1 L12S | -0.194 Z-score of the enrichment rate within one screen of 711 sequences
32 | chain 1 L12K | -0.431 Z-score of the enrichment rate within one screen of 711 sequences
33 | chain 1 L12Y | -0.861 Z-score of the enrichment rate within one screen of 711 sequences
34 | chain 1 L12H | -0.33 Z-score of the enrichment rate within one screen of 711 sequences
35 | chain 1 L12T | -0.304 Z-score of the enrichment rate within one screen of 711 sequences
36 | chain 1 L12M | 0.011 Z-score of the enrichment rate within one screen of 711 sequences
37 | chain 1 A15G | 1.63 Z-score of the enrichment rate within one screen of 711 sequences
38 | chain 1 A15M | 1.57 Z-score of the enrichment rate within one screen of 711 sequences
39 | chain 1 A15R | 1.69 Z-score of the enrichment rate within one screen of 711 sequences
40 | chain 1 A15P | 1.61 Z-score of the enrichment rate within one screen of 711 sequences
41 | chain 1 A15L | 1.8 Z-score of the enrichment rate within one screen of 711 sequences
42 | chain 1 Q4G | 1.26 Z-score of the enrichment rate within one screen of 711 sequences
43 | chain 1 Q4R | 2 Z-score of the enrichment rate within one screen of 711 sequences
44 | chain 1 Q4A | 1.48 Z-score of the enrichment rate within one screen of 711 sequences
45 | chain 1 Q4T | 1.45 Z-score of the enrichment rate within one screen of 711 sequences
46 | chain 1 Q4E | 1.4 Z-score of the enrichment rate within one screen of 711 sequences
47 | chain 1 R7C | 0.232 Z-score of the enrichment rate within one screen of 711 sequences
48 | chain 1 R7Y | 0.245 Z-score of the enrichment rate within one screen of 711 sequences
49 | chain 1 R7H | 0.435 Z-score of the enrichment rate within one screen of 711 sequences
50 | chain 1 R7T | 0.638 Z-score of the enrichment rate within one screen of 711 sequences
51 | chain 1 P8A, chain 1 N16A | 0.523 Z-score of the enrichment rate within one screen of 711 sequences

More lines, now with the values ahead:

Row | screen value | Variant
52 | 1.26 Z-score of the enrichment rate within one screen of 711 sequences | chain 1 P13W
53 | 0.365 Z-score of the enrichment rate within one screen of 711 sequences | chain 1 L14E
54 | 1.36 Z-score of the enrichment rate within one screen of 711 sequences | chain 1 L14W
55 | -0.455 Z-score of the enrichment rate within one screen of 711 sequences | chain 1 R7A, chain 1 L10A
56 | 1.59 Z-score of the enrichment rate within one screen of 711 sequences | chain 1 Q11R
57 | 1.38 Z-score of the enrichment rate within one screen of 711 sequences | chain 1 Q11V
58 | 1.58 Z-score of the enrichment rate within one screen of 711 sequences | chain 1 Q11K
59 | -0.717 Z-score of the enrichment rate within one screen of 711 sequences | chain 1 P8A, chain 1 L12A
60 | 0.13 Z-score of the enrichment rate within one screen of 711 sequences | chain 1 T9A, chain 1 L14A
61 | 0.112 Z-score of the enrichment rate within one screen of 711 sequences | chain 1 R7A, chain 1 T9A
62 | 1.19 Z-score of the enrichment rate within one screen of 711 sequences | chain 1 P6A, chain 1 N16A
63 | 1.16 Z-score of the enrichment rate within one screen of 711 sequences | chain 1 Q11A, chain 1 N16A
64 | 0.774 Z-score of the enrichment rate within one screen of 711 sequences | chain 1 L12W
65 | 0.226 Z-score of the enrichment rate within one screen of 711 sequences | chain 1 L12F
66 | 1.64 Z-score of the enrichment rate within one screen of 711 sequences | chain 1 A15Y
67 | 1.57 Z-score of the enrichment rate within one screen of 711 sequences | chain 1 A15H
68 | 1.12 Z-score of the enrichment rate within one screen of 711 sequences | chain 1 Q4M
69 | 1.2 Z-score of the enrichment rate within one screen of 711 sequences | chain 1 Q4W
70 | 1.28 Z-score of the enrichment rate within one screen of 711 sequences | chain 1 Q4N
71 | 1.59 Z-score of the enrichment rate within one screen of 711 sequences | chain 1 Q4H
72 | 2.02 Z-score of the enrichment rate within one screen of 711 sequences | chain 1 Q4S
73 | -0.584 Z-score of the enrichment rate within one screen of 711 sequences | chain 1 R7D
74 | 0.391 Z-score of the enrichment rate within one screen of 711 sequences | chain 1 R7W
75 | -0.155 Z-score of the enrichment rate within one screen of 711 sequences | chain 1 R7S
